Earlier results, collected in publication PMC7669891.

Columns and labels:
p53 CTD (Homo sapiens) [1] = target: p53 CTD (Homo sapiens) (UniProt P04637); assay: FP
p53 CTD (Homo sapiens) [2] = target: p53 CTD (Homo sapiens) (UniProt P04637); assay: FP; remark: listed apart in the source
p53 CTD (Homo sapiens) [3] = target: p53 CTD (Homo sapiens) (UniProt P04637); assay: FP; remark: listed apart in the source
p53 CTD (Homo sapiens) [4] = target: p53 CTD (Homo sapiens) (UniProt P04637); assay: ITC
p53 CTD (Homo sapiens) [5] = target: p53 CTD (Homo sapiens) (UniProt P04637); assay: FP; remark: listed apart in the source
p53 CTD (Homo sapiens) [6] = target: p53 CTD (Homo sapiens) (UniProt P04637); assay: FP; remark: listed apart in the source
p53 CTD (Homo sapiens) [7] = target: p53 CTD (Homo sapiens) (UniProt P04637); assay: FP; remark: listed apart in the source
p53 CTD (Homo sapiens) [8] = target: p53 CTD (Homo sapiens) (UniProt P04637); assay: FP; remark: listed apart in the source
p53 CTD (Homo sapiens) [9] = target: p53 CTD (Homo sapiens) (UniProt P04637); assay: FP; remark: listed apart in the source
p53 CTD (Homo sapiens) [10] = target: p53 CTD (Homo sapiens) (UniProt P04637); assay: FP; remark: listed apart in the source
p53 CTD (Homo sapiens) [11] = target: p53 CTD (Homo sapiens) (UniProt P04637); assay: FP; remark: listed apart in the source
p53 CTD (Homo sapiens) [12] = target: p53 CTD (Homo sapiens) (UniProt P04637); assay: FP; remark: listed apart in the source
14-3-3γ (Homo sapiens) = 14-3-3γ (Homo sapiens) (UniProt P61981); assay: FP
14-3-3γ (Homo sapiens), sequence (P61981 2-247): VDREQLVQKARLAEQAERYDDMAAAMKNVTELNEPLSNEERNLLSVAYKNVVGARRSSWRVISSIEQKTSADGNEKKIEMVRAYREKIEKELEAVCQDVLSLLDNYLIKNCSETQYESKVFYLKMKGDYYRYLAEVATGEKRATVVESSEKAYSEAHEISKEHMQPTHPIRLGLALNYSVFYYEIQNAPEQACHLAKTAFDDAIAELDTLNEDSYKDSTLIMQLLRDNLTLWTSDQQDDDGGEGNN

14-3-3ε (Homo sapiens) = 14-3-3ε (Homo sapiens) (UniProt P62258); assay: FP
14-3-3ε (Homo sapiens), sequence (P62258 whole entry): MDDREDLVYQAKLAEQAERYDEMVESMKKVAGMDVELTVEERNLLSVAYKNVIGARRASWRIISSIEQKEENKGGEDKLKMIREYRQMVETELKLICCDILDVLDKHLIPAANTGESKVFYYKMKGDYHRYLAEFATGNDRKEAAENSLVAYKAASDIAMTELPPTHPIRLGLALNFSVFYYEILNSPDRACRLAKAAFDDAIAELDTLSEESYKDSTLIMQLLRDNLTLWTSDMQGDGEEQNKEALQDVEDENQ

14-3-3σ (Homo sapiens) [13] = target: 14-3-3σ (Homo sapiens) (UniProt P31947); assay: FP
14-3-3σ (Homo sapiens), sequence (P31947 whole entry): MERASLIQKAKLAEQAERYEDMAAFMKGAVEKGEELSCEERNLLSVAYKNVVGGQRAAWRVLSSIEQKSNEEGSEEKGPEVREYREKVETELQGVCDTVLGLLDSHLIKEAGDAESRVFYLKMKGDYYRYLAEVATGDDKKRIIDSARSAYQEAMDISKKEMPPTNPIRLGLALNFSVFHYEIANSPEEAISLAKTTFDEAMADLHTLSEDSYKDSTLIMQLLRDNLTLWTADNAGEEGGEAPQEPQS

14-3-3τ (Homo sapiens) = 14-3-3τ (Homo sapiens) (UniProt P27348); assay: FP
14-3-3τ (Homo sapiens), sequence (P27348 whole entry): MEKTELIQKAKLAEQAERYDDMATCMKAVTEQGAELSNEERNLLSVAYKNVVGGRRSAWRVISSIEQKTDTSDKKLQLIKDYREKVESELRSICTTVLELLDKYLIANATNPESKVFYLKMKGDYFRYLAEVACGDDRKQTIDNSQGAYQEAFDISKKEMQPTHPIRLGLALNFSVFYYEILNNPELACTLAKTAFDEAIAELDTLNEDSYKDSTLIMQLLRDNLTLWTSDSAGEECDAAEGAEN

14-3-3σ (Homo sapiens) [14] = target: 14-3-3σ (Homo sapiens) (UniProt P31947); assay: ITC
p53 CTD (Homo sapiens) [15] = target: p53 CTD (Homo sapiens) (UniProt P04637); assay: FP; remark: listed apart in the source
p53 CTD (Homo sapiens) [16] = target: p53 CTD (Homo sapiens) (UniProt P04637); assay: FP; remark: listed apart in the source
p53 CTD (Homo sapiens) [17] = target: p53 CTD (Homo sapiens) (UniProt P04637); assay: FP; remark: listed apart in the source
p53 CTD (Homo sapiens) [18] = target: p53 CTD (Homo sapiens) (UniProt P04637); assay: FP; remark: listed apart in the source
p53 CTD (Homo sapiens) [19] = target: p53 CTD (Homo sapiens) (UniProt P04637); assay: FP; remark: listed apart in the source
p53 CTD (Homo sapiens) [20] = target: p53 CTD (Homo sapiens) (UniProt P04637); assay: FP; remark: listed apart in the source
p53 CTD (Homo sapiens) [21] = target: p53 CTD (Homo sapiens) (UniProt P04637); assay: FP; remark: listed apart in the source
p53 CTD (Homo sapiens) [22] = target: p53 CTD (Homo sapiens) (UniProt P04637); assay: FP; remark: listed apart in the source
p53 CTD (Homo sapiens) [23] = target: p53 CTD (Homo sapiens) (UniProt P04637); assay: FP; remark: listed apart in the source
p53 CTD (Homo sapiens) [24] = target: p53 CTD (Homo sapiens) (UniProt P04637); assay: FP; remark: listed apart in the source

14-3-3σ, sequence (P31947 whole entry): as the sequence (P31947 whole entry) above
p53 CTD (Homo sapiens), sequence (P04637 363-393): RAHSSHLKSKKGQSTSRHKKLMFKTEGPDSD
p53 CTD pS366/pT387 peptide, sequence (P04637 361-393): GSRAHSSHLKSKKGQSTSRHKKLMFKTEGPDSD
p53 CTD pS378/pT387 peptide, sequence (P04637 361-393): as above
p53 CTD pT387 peptide, sequence (P04637 361-393): as above
p53 CTD pS366 peptide, sequence (P04637 361-393): as above
p53 CTD pS366/pS378 peptide, sequence (P04637 361-393): as above
p53 CTD pS378 peptide, sequence (P04637 361-393): as above
14-3-3τ, sequence (P27348 whole entry): as the sequence (P27348 whole entry) above
14-3-3γ, sequence (P61981 2-247): as the sequence (P61981 2-247) above
14-3-3ε, sequence (P62258 whole entry): as the sequence (P62258 whole entry) above

Kd (p53 CTD (Homo sapiens) [3]) | Kd (14-3-3γ (Homo sapiens)) | Kd (14-3-3ε (Homo sapiens)) | Kd (14-3-3σ (Homo sapiens) [13]) | Kd (14-3-3τ (Homo sapiens)) | Substance | also measured
23 µM |  |  |  |  | 14-3-3σ (from UniProt P31947) | Kd (p53 CTD (Homo sapiens) [1]): 3.5 µM; Kd (p53 CTD (Homo sapiens) [2]): 24 µM; Kd (p53 CTD (Homo sapiens) [4]): 16.3 µM; Kd (p53 CTD (Homo sapiens) [5]): 7.3 µM; Kd (p53 CTD (Homo sapiens) [6]): 2.2 µM; Kd (p53 CTD (Homo sapiens) [7]): 22 µM
16 µM |  |  |  |  | 14-3-3ε (from UniProt P62258) | Kd (p53 CTD (Homo sapiens) [8]): 11 µM; Kd (p53 CTD (Homo sapiens) [9]): 0.51 µM; Kd (p53 CTD (Homo sapiens) [10]): 0.8 µM; Kd (p53 CTD (Homo sapiens) [11]): 0.18 µM; Kd (p53 CTD (Homo sapiens) [12]): 18 µM
 | 0.14 µM | 0.18 µM | 3.5 µM | 6.2 µM | p53 CTD pS366/pT387 peptide (from UniProt P04637) | 
 | 14 µM | 11 µM | 23 µM | 24 µM | p53 CTD pT387 peptide (from UniProt P04637) | 
 |  |  |  |  | p53 pT387 peptide (from UniProt P04637) | Kd (14-3-3σ (Homo sapiens) [14]): 16.3 µM
6.2 µM |  |  |  |  | 14-3-3τ (from UniProt P27348) | Kd (p53 CTD (Homo sapiens) [15]): 27 µM; Kd (p53 CTD (Homo sapiens) [16]): 3.3 µM; Kd (p53 CTD (Homo sapiens) [17]): 28 µM; Kd (p53 CTD (Homo sapiens) [18]): 24 µM; Kd (p53 CTD (Homo sapiens) [19]): 2.1 µM
 | 0.45 µM | 0.8 µM | 7.3 µM | 3.3 µM | p53 CTD pS378/pT387 peptide (from UniProt P04637) | 
 | 17 µM | 16 µM | 24 µM | 28 µM | p53 CTD pS366 peptide (from UniProt P04637) | 
 | 0.48 µM | 0.51 µM | 2.2 µM | 2.1 µM | p53 CTD pS366/pS378 peptide (from UniProt P04637) | 
0.45 µM |  |  |  |  | 14-3-3γ (from UniProt P61981) | Kd (p53 CTD (Homo sapiens) [20]): 0.48 µM; Kd (p53 CTD (Homo sapiens) [21]): 20 µM; Kd (p53 CTD (Homo sapiens) [22]): 14 µM; Kd (p53 CTD (Homo sapiens) [23]): 17 µM; Kd (p53 CTD (Homo sapiens) [24]): 0.14 µM
 | 20 µM | 18 µM | 22 µM | 27 µM | p53 CTD pS378 peptide (from UniProt P04637) | 
